Measurements as given in article PMC7050208.

System: N[C@@H](CCOP(=O)(O)O)C(=O)O
Assay: coupled MESG/PNP phosphate release, A360
Type: biochemical, Bacillus spizizenii
Settings: 50 mM HEPES-NaOH pH 7.5, 100 μM PLP

Row | Substance | Km (0.1 μM enzyme) | kcat (0.1 μM enzyme) | Km (0.25 μM enzyme) | kcat (0.25 μM enzyme)
1 | BsThrC (Bacillus spizizenii) | 329 µM | 1.74 s⁻¹ | – | –
2 | RhiB (Bacillus spizizenii ATCC 6633 = JCM 2499) | – | – | 824 µM | 0.60 s⁻¹
